Assay [1] deals with monomeric properdin lacking TSR domains 2 and 3 (FPΔ2,3) (human) (UniProt P27918). Kind of assay: SEC-MALS; FPΔ2,3 with added CirpA1; S200 10/300 column in PBS, 100 uL at 1 mg/mL.
Assay [2] addresses properdin from human serum (human) (UniProt P27918).
Assay [3] has the same target. This is another data set of the same source.
Assay [4] deals with monomeric properdin lacking TSR domains 2 and 3 (FPΔ2,3) (human) (UniProt P27918). Kind of assay: MST; RED-NHS labelled FPΔ2,3 constant at 50 nM, CirpA1 2 nM to 64 uM; PBS, 0.05% Tween-20, pH 7.4; Monolith NT.115.

Chain of UniProt P27918 (P27918 28-469): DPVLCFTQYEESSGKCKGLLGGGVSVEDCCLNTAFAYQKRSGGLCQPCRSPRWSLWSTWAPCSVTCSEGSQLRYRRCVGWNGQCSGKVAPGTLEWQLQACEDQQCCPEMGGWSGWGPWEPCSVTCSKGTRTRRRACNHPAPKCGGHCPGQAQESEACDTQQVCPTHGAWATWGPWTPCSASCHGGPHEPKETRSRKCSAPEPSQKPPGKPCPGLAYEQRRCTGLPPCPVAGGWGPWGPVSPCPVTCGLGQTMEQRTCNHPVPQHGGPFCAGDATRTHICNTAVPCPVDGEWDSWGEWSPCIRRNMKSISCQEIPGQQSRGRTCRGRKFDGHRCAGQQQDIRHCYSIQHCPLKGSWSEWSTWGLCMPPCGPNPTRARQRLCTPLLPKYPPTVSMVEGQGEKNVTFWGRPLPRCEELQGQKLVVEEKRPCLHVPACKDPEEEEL

In general, stoichiometry N refers to a count of units in the complex or per binding partner. In turn, “CirpA1 (Complement inhibitor from R. pulchellus of the alternative pathway 1), refolded (natural protein)” returned a stoichiometry N in assay [1] of 1.

For orientation: Kd means a measure of binding affinity in units of concentration. “CirpA1, recombinant, preparation not stated for the experiment (natural protein)”: in assay [2], the AP haemolysis assay, human serum, rabbit erythrocytes; CirpA1 purified from insect cells turned out to be 1.41e-08. The substance also displayed an inhibition of the alternative pathway (MAC formation), WIESLAB assay, human serum in assay [3] of 13 nM. The substance further showed a Kd in assay [4] of 0.097 µM.

CirpA6 (natural protein) returned an AP haemolysis assay, human serum, rabbit erythrocytes in assay [2] of 1.4e-08.

(Values after article PMC8760278.)
